molecular target: fibronectin (UniProt P02751); assay: SPR; settings: not given

Row | Substance | Kd [µM]
1 | AggAdsA triple mutant (Lys73Ala, Lys76Ala, and Lys78Ala) (domain or fragment) | > 200
2 | AggBdsA (AAF/I minor subunit AggB complemented with the donor strand of AggA) (domain or fragment) | 100

molecular target: fibronectin (UniProt P02751); assay: bacterial adherence to fibronectin-coated 96-well plates (colony counting); settings: plates coated with 25 µg/ml of fibronectin; in the presence of arabinose; parent: 100; read off a plot

Row | Substance | percent of parent (% of binding to Fn)
3 | AafA, major subunit of AAF/II, on wild type EAEC 042 L132A | 79
4 | AafA, major subunit of AAF/II, on wild type EAEC 042 R44A | 6
5 | AafA, major subunit of AAF/II, on wild type EAEC 042 D14A | 99
6 | AafA, major subunit of AAF/II, on wild type EAEC 042 K66R | 51
7 | AafA, major subunit of AAF/II, on wild type EAEC 042 E131A | 75
8 | AafA, major subunit of AAF/II, on wild type EAEC 042 T77A | 67
9 | AafA, major subunit of AAF/II, on wild type EAEC 042 S30A | 65
10 | AafA, major subunit of AAF/II, on wild type EAEC 042 K66A | 0
11 | AafA, major subunit of AAF/II, on wild type EAEC 042 S73A | 80
12 | AafA, major subunit of AAF/II, on wild type EAEC 042 K72R | 100
13 | AafA, major subunit of AAF/II, on wild type EAEC 042 T38L | 72
14 | AafA, major subunit of AAF/II, on wild type EAEC 042 N88A | 70
15 | AafA, major subunit of AAF/II, on wild type EAEC 042 K72A | 6
16 | AafA, major subunit of AAF/II, on wild type EAEC 042 T114A | 71
17 | AafA, major subunit of AAF/II, on wild type EAEC 042 R23A | 12
18 | AafA, major subunit of AAF/II, on wild type EAEC 042 R40A | 2
19 | AafA, major subunit of AAF/II, on wild type EAEC 042 E57A | 76
20 | AafA, major subunit of AAF/II, on wild type EAEC 042 G69A | 81

Source: PMC4169507
